Assay results: publication PMC3731144 (Proteins, 2012)

Assays:
[1] = target: gp120YU2 D474A (HIV-1 strain YU2); assay: SPR
[2] = target: gp120YU2 E102A (HIV-1 strain YU2); assay: SPR
[3] = target: gp120YU2 K97A (HIV-1 strain YU2); assay: SPR
[4] = target: gp120YU2 T257A (HIV-1 strain YU2); assay: SPR
CCR5-utilizing virus = conditions: ref [4]; cited from earlier work

Hexahis-tagged 4-domain soluble CD4 (receptor)
Kd [1]: 5 nM
RU bound at the end of association (500 nM CD4) [1]: 47 RU
Kd [2]: 3 nM
Kd [3]: 10 nM
Kd [4]: 5 nM
RU bound at the end of association (500 nM CD4) [4]: 23 RU

maraviroc
antiviral effectiveness by tropism (CCR5-utilizing virus): only effective against solely CCR5-utilizing virus
